In patent publication US5574007A, “Polypeptide capable of interacting with thrombin” (Asahi Kasei Kogyo Kabushiki Kaisha, priority 1990, dated 1996):
Values belong to the compound of their own block, whether it stands above or below them. Positions of bridges follow the written chain, without caps; N, C: chain ends. Residues, ends and D or L forms follow the SMILES beside them.

What was measured:
[1] = target: binding of thrombin to thrombomodulin (Homo sapiens, UniProt P00734); test: Activity of synthetic peptides to inhibit the binding of thrombin to thrombomodulin (Dixon plot); conditions: D123Asp-coated plate, crosslinked synthetic peptide
Experimental: The acitvity of each of the synthetic peptides to inhibit the binding of thrombin to thrombomodulin is determined by the following method. D123Asp purified in Example 1-(4)-(b) is diluted with 0.1M sodium bicarbonate buffer (pH 9.2) so that the final concentration of D123Asp becomes 1.5 μg/ml. 100 μl of the diluent is dispensed to each well of a flat-bottomed 96 well-microtiter plate for ELISA. The plate is allowed to stand for 3 hours, and then each well is washed with 0.1M sodium bicarbonate buffer (pH 9.2). 150 μl of 50 mM Tris-HCl buffer (pH 7.5) containing 0.1M NaCl and 1% BSA is dispensed to each well, and the plate is allowed to stand for 2 hours so that each well is subjected to blocking. To each well of the plate is added a solution obtained by reacting thrombin (0 to 0.4 μg/μl), which has been diluted with a washing solution {50 mM Tris-HCl buffer (pH 7.5) containing 0.5% BSA and 0.05% Tween-20}, with various concentrations of the synthetic peptide solutions at 37° C. for 30 minutes, and a reaction is conducted at room temperature for 1 hour. The plate is washed again with the above-mentioned washing solution. To each well of the plate is added 100 μl of 50 mM Tris-HCl buffer (pH 8.0) containing 0.1M NaCl, in which 200 μM H-D-Phe-Pip-Arg-pNA (Kabi Virum, Sweden, catalog No. S2238) has been dissolved, to thereby liberate pNA (paranitroanilin). A few hours later, the absorbance of the liberated pNA is measured at a wavelength of 410 nm. To determine the inhibition constant (Ki) of each of the synthetic peptides, 100/v in which v represents the thrombin activity (expressed in %) at the time when a peptide having a predetermined concentration is added, assuming the thrombin activity in the absence of a peptide as 100%, is plotted in rectangular coordinates against the concentration of the peptide to-obtain a graph (Dixon plot). The inhibition constant (Ki) is defined as the reading of the intersection of the plotted line with the abscissa.

[2] = target: T1, thrombin-catalyzed activation of protein C (Homo sapiens, UniProt P00734); test: Assay of the activity to promote the thrombin-catalyzed activation of protein C (Example 1-(3), fluorogenic substrate Boc-Leu-Ser-Thr-Arg-MCA); assay type: biochemical, bovine; parameters: 3 μl of thrombin (manufactured and sold by Sigma Chemical Company, catalog No. T-6759, 20 ng/μl); purchased Sigma Chemical Company T-6759; conditions: for activity to promote the thrombin-catalyzed activation of protein C (in words): purified polypeptide from COS-1, calcium ion concentrations of 0 to 5 mM
Experimental: 5 μl of the supernatant of the culture of COS-1 cells is transformed by each of plasmids pSV2TMD7 and pSV2TMD8, 3 μl of thrombin (manufactured and sold by Sigma Chemical Company, catalog No. T-6759, 20 ng/μl), 5 μl of 10×Assay Buffer containing 1M NaCl, 30 mM CaCl2, 1% calf serum albumin and 0.5M tris-HCl buffer (pH 8.5) and 29.5 μl of distilled water are mixed together and allowed to stand at 37° C. for 5 minutes, followed by the addition of 7.5 μl protein C (derived from bovine, 0.2 μg/μl) to the mixture. The reaction is conducted at 37° C. for 30 minutes, and terminated by adding 6.25 μl of a stop solution (20 mM tris-HCl buffer, pH7.5, containing 100 mM NaCl, 0.3A280 anti-thrombin III and 100 μg/ml heparin).
The activity of activated protein C is measured by first adding 10 μl of Boc-Leu-Ser-Thr-Arg-MCA (manufactured and sold by Peptide Institute, The Foundation (Japan), 5 mg/ml), 5 μl of 5M CsCl and 495 μl of a substrate reaction buffer (50 mM tris-HCl buffer containing 100 mM NaCl (pH 8.5)), next allowing the reaction to proceed at 37° C. for 20 minutes, then terminating the reaction by adding 55 μl of acetic acid, and finally measuring the concentration of liberated AMC ([…]) by means of a spectrofluorometer (model RF-540, manufactured and sold by Shimadzu Corporation, Japan) at an excitation wavelength of 380 nm and an emission wavelength of 440 nm. The obtained fluorescence intensity is compared with the fluorescence intensity of a solution having a known AMC concentration to determine the amount of the liberated AMC. The value obtained by deducting from this amount the amount of AMC in the case where an aqueous solution containing no polypeptide of the present invention is added, represents the activity of the polypeptide to promote the thrombin-catalyzed activation of protein C. The activity to produce 1 nM of activated protein C per ml of reaction mixture and per minute is defined as 1 u (unit).
(§1) With respect to the polypeptide solutions (0.4 μg/ml) purified and quantitated in Example 1-(5)-(d), the activity of polypeptides to promote the thrombin-catalyzed activation of protein C is measured according to the method described in Example 1-(3). The CaCl2 concentration of 10×Assay buffer is adjusted so that the activities at calcium ion concentrations of 0 to 5 mM are determined. Also, with respect to protein C having no Gla domain (hereinafter referred to as "GDPC") which is prepared by chymotrypsin treatment according to the method of N. L. Esmon [J. Biol. Chem. Vol. 258, pp. 5548-5553 (1983)]and which is used instead of protein C, the activity measurement is carried out within the same range of calcium concentration.

[3] = target: T1, thrombin-catalyzed activation of protein C; test: Activated protein C formation against reaction time with purified polypeptide (Example 4-(6)); assay type: biochemical
Experimental: To 0.02M Tris-HCl buffer (pH 8.5) containing 0.1M NaCl, 0.5 mM CaCl2 and 10 mg/ml BSA are added 50 μg/ml protein C, 5 nM thrombin and 5 nM of each of the purified polypeptides of the present invention, and reacted at 37° C. To each of the reaction mixtures are added 300 μg/ml antithrombin III (manufactured and sold by Sigma Chemical Company, U.S.A.) and 5 mM EDTA to terminate the reaction. Then, the amount of the activated protein C produced by the reaction is determined by the method described in Example 1-(3) in which a synthetic substrate is used.

[4] = target: thrombin-catalyzed conversion of fibrinogen to fibrin (Homo sapiens, UniProt P00734); test: Anticoagulating activity: clotting time of a fibrinogen solution; assay type: biochemical; conditions: polypeptide purified from Acremonium chrysogenum (Example 6(4))
Experimental: The activity of each of the polypeptides of the present invention to inhibit the thrombin-catalyzed conversion of fibrinogen to fibrin so as to inhibit blood coagulation, is determined by measuring clotting time using Coagulometer KC-10A (manufactured and sold by Heinrich Amelung A.G., Germany). Illustratively stated, to 0.05M Tris-HCl buffer (pH 7.5) containing 5 mM CaCl2 and 0.1M NaCl is added 3.0 μg of fibrinogen (Fraction I, manufactured and sold by Sigma Chemical Company, U.S.A.). To the resultant mixture is added 0 to 50 nM of each of the purified polypeptides of the present invention. Then, 10 nM thrombin is added to the mixture in such an amount that the total amount of the mixture becomes 0.4 ml, and then the coagulation time of the mixture is measured.

[5] = tested on: thrombin-catalyzed platelet aggregation; test: Platelet aggregation-inhibiting activity (Platelet Rich Plasma, HEMA TRACER IV); assay type: cell-based; conditions: polypeptide purified from Acremonium chrysogenum (Example 6(4))
Experimental: The activity of each of the polypeptides of the present invention to inhibit the thrombin-catalyzed platelet aggregation is evaluated using platelet aggregation measuring apparatus HEMA TRACER IV (manufactured and sold by NIKO Bioscience, Inc., Japan). Measurement is carried out according to the manual attached thereto. When 40 μl of a 20 NIH unit/ml thrombin solution (manufactured and sold by SIGMA Chemical Co., U.S.A., T 6759) is added to 180 μl of a Platelet Rich Plasma (PRP) platelet solution (3×10^5 cells/μl) and incubated, the aggregation of platelets occurs. […] The aggregation of platelets is determined on the basis of the transparency, assuming the transparency of Platelet Poor Plasma (PPP) solution as 100%. The ratio of platelet aggregation is plotted against the incubation time (0 min: the time when thrombin or a mixture of thrombin and one of the polypeptides is added to the PRP solution). It is confirmed that the platelet aggregation is inhibited when one of the polypeptides of the present invention is added.

[6] = target: T2, thrombin-catalyzed activation of GDPC (protein C having no Gla domain) (Homo sapiens, UniProt P00734); test: Same assay with protein C having no Gla domain (GDPC) instead of protein C; assay type: biochemical; conditions: calcium ion concentrations of 0 to 5 mM
T2 construct: 3 μl of thrombin (manufactured and sold by Sigma Chemical Company, catalog No. T-6759, 20 ng/μl); purchased Sigma Chemical Company T-6759
Experimental: as §1

Ki ([1]; read-out: Inhibition constant (Ki)): 95 µM
Compound: CC[C@H](C)[C@H](NC(=O)[C@H](CC(=O)O)NC(=O)[C@@H](NC(=O)[C@@H]1CSSC[C@H](NC(=O)[C@@H](N)CCC(=O)O)C(=O)N2CCC[C@H]2C(=O)N[C@@H](CCC(=O)O)C(=O)NCC(=O)N[C@@H](Cc2ccc(O)cc2)C(=O)N[C@@H]([C@@H](C)CC)C(=O)N[C@@H](CC(C)C)C(=O)N[C@@H](CC(=O)O)C(=O)N[C@@H](CC(=O)O)C(=O)NCC(=O)N[C@@H](Cc2ccccc2)C(=O)N[C@@H]([C@@H](C)CC)C(=O)N1)[C@@H](C)O)C(=O)N[C@@H](CC(=O)O)C(=O)N[C@@H](CCC(=O)O)C(=O)O [Polypeptide C, Glu-Cys-Pro-Glu-Gly-Tyr-Ile-Leu-Asp-Asp-Gly-Phe-Ile-Cys-Thr-Asp-Ile-Asp-Glu] (H-ECPEGYILDDGFICTDIDE-OH; disulfide 2-14)

Inhibition constant (Ki) [1]: no inhibiting activity
Compound: CSCC[C@H](N)C(=O)N[C@@H](Cc1ccccc1)C(=O)N[C@H]1CSSC[C@@H](C(=O)N[C@@H](CC(=O)O)C(=O)O)NC(=O)[C@H](CC(=O)O)NC(=O)[C@H](C)NC(=O)[C@@H]2CCCN2C(=O)[C@H](C)NC(=O)[C@H](C)NC(=O)[C@H]([C@@H](C)O)NC(=O)[C@H](CCC(N)=O)NC(=O)[C@H](CC(N)=O)NC1=O [Polypeptide A, Met-Phe-Cys-Asn-Gln-Thr-Ala-Ala-Pro-Ala-Asp-Cys-Asp] (H-MFCNQTAAPADCD-OH; disulfide 3-12)

activity relative to that of D123Asp ([2]; activation of protein C): 1.2 times
activity to promote the thrombin-catalyzed activation of protein C (in words) [2]: activity similar to that of D123Asp
Compound: D123Glu: polypeptide up to the 516th position of human thrombomodulin wherein the 367th Asp is changed to Glu (pSV2TMM2)

Compound: E456Glu: 367th to 480th amino acid residues of human thrombomodulin in which the 367th Asp is replaced by Glu (pSV2TMM3)
amount of activated protein C with reaction time (in words) ([3]; 5 nM polypeptide, 5 nM thrombin, 50 μg/ml protein C, 37° C., polypeptide from COS-1 or CHO cells): increased with the lapse of reaction time
amount of activated protein C with reaction time (in words) ([3]; polypeptide purified from Acremonium chrysogenum strains D71 and M31 (Example 6(4))): increased with the lapse of reaction time
activity relative to that of E456Asp ([2]; activation of protein C): 1.3 times
clotting time of fibrinogen solution against amount of polypeptide (in words) [4]: the longer the clotting time
thrombin-catalyzed platelet aggregation (in words) [5]: inhibited

Inhibition constant (Ki) [1]: no inhibiting activity
Compound: C[C@H](N)C(=O)N[C@H]1CSSC[C@@H](C(=O)N[C@@H](CCC(=O)O)C(=O)O)NC(=O)[C@H](CO)NC(=O)[C@H](C)NC(=O)[C@H](CCC(N)=O)NC(=O)[C@H]([C@@H](C)O)NC(=O)[C@H](CC(N)=O)NC(=O)[C@@H]2CCCN2C(=O)[C@H](CC(=O)O)NC(=O)[C@H](C)NC(=O)[C@H](CC(=O)O)NC(=O)[C@H](C)NC(=O)[C@@H]2CCCN2C1=O [Polypeptide B, Ala-Cys-Pro-Ala-Asp-Ala-Asp-Pro-Asn-Thr-Gln-Ala-Ser-Cys-Glu] (H-ACPADADPNTQASCE-OH; disulfide 2-14)

activity to promote the thrombin-catalyzed activation of protein C (in words) [2]: low activity
activity in the activation of GDPC (in words) [6]: low activity
Compound: D123Ala: polypeptide up to the 516th position of human thrombomodulin wherein the 367th Asp is changed to Ala (pSV2TMM1)
